Data as given in US10562947B2, “Compositions and methods for preventing or treating diseases, conditions or processes characterized by aberrant fibroblast proliferation and extracellular matrix deposition” (MOERAE MATRIX, INC., priority 2011, dated 2020).

Assays:
Experiment in all cases: Kinase Profiling Assay
Assay type in all cases: biochemical
Details in all cases: 100 μM peptide
BRK(h) = BRK(h) (Homo sapiens, UniProt Q13882)
Summary of the method: (§1)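 Off-target screen of MK2 peptide inhibitors, 266 human kinases, n = 2 per activity measurement.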

DCAMKL2(h) = molecular target: T1, DCAMKL2(h) (Homo sapiens, UniProt Q8N568)
T1 sequence (Q8N568 1-766): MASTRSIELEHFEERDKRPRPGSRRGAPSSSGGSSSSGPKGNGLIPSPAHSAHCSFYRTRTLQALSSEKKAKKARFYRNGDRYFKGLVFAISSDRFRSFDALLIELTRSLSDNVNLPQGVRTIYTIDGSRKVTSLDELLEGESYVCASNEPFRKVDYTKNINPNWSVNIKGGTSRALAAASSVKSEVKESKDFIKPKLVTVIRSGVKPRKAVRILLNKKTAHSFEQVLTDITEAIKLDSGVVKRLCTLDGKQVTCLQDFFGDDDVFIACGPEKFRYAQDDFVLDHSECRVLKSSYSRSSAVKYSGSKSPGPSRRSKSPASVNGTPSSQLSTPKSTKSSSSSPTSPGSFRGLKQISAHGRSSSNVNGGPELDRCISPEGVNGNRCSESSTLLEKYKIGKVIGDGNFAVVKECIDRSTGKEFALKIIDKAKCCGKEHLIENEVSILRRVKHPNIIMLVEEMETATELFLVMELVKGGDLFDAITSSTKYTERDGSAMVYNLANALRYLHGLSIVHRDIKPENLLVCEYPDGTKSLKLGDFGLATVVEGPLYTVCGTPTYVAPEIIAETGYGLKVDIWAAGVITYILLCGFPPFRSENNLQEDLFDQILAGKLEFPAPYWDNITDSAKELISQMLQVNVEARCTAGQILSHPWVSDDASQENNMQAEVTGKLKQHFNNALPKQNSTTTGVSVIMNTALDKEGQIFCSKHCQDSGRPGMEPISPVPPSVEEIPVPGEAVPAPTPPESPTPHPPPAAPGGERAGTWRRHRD
Summary of the method: as §1

IKKβ(h) = molecular target: T2, IKKβ(h) (Homo sapiens, UniProt O14920)
T2 construct: purchased Millipore
T2 sequence (O14920 1-756): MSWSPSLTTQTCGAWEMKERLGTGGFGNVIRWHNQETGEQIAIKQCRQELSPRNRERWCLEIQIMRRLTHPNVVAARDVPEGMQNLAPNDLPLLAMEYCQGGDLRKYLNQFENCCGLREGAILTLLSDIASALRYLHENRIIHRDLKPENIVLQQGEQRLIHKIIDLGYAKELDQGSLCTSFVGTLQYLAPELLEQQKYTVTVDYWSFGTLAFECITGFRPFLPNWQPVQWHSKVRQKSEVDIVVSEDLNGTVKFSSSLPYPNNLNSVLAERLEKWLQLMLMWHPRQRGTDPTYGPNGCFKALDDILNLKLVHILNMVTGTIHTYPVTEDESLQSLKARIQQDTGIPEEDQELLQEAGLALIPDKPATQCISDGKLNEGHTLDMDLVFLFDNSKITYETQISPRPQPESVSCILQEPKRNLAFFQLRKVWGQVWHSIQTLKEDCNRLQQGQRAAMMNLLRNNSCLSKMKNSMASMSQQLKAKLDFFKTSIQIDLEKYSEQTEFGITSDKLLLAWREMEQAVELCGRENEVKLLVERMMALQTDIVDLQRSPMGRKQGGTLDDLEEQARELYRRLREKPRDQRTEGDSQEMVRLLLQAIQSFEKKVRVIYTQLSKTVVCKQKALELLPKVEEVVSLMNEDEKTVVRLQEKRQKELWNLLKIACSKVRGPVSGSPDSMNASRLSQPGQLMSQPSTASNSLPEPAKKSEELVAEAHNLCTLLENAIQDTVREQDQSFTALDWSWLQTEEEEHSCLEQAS
Summary of the method: as §1

PKCζ(h) = molecular target: T3, PKCζ(h) (Homo sapiens, UniProt Q05513)
T3 construct: purchased Millipore (IC50 Profiler Express service)
T3 sequence (Q05513 1-592): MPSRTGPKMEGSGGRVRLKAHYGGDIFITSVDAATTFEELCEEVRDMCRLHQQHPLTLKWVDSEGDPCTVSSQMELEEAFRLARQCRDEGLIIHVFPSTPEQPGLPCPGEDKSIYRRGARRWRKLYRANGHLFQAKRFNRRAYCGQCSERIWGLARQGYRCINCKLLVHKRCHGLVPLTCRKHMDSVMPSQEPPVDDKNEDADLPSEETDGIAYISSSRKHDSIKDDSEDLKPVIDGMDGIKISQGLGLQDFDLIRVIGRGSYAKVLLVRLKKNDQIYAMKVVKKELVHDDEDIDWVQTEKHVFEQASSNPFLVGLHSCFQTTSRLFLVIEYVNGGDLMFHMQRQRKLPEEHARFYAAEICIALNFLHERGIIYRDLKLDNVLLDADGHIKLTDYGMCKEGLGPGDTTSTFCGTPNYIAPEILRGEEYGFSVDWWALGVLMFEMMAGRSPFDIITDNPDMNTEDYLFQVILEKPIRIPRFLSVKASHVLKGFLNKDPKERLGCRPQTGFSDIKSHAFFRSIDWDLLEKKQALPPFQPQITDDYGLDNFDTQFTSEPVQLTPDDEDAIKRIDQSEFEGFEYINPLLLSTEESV
Summary of the method: as §1

RIPK2(h) = molecular target: T4, RIPK2(h) (Homo sapiens, UniProt O43353)
T4 construct: purchased Millipore (IC50 Profiler Express service)
Summary of the method: as §1

ROCK-II(h) = molecular target: T5, ROCK-II(h) (Homo sapiens, UniProt O75116)
T5 construct: purchased Millipore (IC50 Profiler Express service)
Summary of the method: as §1

Ret(V804M)(h) = molecular target: T6, Ret(V804M)(h) (Homo sapiens, UniProt P07949, V804M)
T6 construct: purchased Millipore (IC50 Profiler Express service)
Summary of the method: as §1

WNK2(h) = WNK2(h) (Homo sapiens, UniProt Q9Y3S1)
Summary of the method: as §1

ZIPK(h) = ZIPK(h) (Homo sapiens, UniProt O43293)
Summary of the method: as §1

cKit(D816H)(h) = cKit(D816H)(h) (Homo sapiens, UniProt P10721, D816H)
Summary of the method: as §1

Sequence of ZIPK(h) (O43293 whole entry): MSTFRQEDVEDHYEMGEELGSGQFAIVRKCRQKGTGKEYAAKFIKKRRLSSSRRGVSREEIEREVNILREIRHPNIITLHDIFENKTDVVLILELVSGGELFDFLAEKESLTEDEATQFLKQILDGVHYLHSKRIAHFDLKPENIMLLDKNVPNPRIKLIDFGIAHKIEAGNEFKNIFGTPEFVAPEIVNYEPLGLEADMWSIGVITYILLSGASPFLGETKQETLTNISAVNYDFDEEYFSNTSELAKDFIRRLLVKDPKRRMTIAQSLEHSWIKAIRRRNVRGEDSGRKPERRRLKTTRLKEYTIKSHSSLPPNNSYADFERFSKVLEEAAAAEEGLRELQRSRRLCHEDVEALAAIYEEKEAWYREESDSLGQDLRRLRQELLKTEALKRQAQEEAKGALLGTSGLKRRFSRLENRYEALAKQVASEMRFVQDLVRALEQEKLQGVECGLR
T5 sequence (O75116 whole entry): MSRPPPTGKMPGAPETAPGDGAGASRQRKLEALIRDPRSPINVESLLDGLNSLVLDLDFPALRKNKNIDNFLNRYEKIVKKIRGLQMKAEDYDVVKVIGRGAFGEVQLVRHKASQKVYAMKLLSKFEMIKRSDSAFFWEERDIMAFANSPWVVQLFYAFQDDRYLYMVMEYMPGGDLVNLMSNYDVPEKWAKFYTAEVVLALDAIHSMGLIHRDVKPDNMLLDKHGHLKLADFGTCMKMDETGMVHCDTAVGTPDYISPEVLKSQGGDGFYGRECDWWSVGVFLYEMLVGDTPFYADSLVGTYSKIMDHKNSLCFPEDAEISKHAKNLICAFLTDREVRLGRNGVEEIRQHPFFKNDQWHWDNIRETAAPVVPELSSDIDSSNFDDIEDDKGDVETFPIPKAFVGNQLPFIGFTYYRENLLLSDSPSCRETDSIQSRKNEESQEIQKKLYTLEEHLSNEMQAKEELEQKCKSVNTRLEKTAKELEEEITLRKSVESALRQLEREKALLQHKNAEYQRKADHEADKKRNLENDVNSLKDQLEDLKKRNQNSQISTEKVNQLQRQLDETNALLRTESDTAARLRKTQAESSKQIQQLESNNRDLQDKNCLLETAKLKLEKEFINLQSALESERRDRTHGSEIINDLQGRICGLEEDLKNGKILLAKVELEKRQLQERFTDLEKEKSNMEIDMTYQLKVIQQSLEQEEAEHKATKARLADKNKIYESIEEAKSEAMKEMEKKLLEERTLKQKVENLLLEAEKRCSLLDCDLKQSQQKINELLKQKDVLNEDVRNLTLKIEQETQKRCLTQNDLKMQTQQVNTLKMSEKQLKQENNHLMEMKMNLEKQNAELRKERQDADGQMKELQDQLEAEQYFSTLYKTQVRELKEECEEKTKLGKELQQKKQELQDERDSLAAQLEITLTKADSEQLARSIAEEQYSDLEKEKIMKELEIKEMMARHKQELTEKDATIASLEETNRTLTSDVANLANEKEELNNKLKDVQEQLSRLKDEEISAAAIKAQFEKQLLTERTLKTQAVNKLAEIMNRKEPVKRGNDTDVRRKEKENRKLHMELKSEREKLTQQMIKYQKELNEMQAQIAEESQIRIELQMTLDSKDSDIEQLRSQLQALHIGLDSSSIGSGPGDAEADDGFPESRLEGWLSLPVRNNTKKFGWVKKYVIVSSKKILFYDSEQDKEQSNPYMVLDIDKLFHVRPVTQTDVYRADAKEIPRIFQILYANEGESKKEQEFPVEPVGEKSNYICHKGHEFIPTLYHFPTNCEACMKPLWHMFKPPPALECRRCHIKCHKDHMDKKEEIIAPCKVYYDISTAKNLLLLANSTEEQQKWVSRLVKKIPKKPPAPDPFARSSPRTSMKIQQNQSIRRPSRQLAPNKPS
Sequence of BRK(h) (Q13882 whole entry): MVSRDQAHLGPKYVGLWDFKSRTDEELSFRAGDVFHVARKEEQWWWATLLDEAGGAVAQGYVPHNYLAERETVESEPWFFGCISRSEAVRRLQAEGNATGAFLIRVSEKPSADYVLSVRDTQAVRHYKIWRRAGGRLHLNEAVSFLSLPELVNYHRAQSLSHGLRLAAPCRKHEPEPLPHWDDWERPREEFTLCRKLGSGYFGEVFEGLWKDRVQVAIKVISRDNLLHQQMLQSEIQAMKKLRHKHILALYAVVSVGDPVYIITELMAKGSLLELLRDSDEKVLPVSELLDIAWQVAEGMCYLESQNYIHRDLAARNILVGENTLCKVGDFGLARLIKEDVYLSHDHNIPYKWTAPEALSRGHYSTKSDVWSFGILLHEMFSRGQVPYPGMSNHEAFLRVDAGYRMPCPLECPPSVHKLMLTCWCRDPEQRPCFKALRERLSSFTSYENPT
T4 sequence (O43353 whole entry): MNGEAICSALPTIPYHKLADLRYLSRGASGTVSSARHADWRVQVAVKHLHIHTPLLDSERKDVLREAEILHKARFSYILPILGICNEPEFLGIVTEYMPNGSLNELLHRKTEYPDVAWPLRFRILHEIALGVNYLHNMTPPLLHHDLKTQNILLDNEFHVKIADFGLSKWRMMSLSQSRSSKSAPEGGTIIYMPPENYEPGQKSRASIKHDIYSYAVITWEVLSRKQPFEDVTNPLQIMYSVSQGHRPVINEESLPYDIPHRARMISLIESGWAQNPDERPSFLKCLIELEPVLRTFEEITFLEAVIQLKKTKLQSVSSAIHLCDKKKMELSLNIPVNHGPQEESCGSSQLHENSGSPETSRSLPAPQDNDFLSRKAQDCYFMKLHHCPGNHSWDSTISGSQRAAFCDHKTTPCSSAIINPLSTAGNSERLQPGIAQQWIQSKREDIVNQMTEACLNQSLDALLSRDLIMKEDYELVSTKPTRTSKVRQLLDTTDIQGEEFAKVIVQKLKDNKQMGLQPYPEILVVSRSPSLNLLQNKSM
Sequence of WNK2(h) (Q9Y3S1 whole entry): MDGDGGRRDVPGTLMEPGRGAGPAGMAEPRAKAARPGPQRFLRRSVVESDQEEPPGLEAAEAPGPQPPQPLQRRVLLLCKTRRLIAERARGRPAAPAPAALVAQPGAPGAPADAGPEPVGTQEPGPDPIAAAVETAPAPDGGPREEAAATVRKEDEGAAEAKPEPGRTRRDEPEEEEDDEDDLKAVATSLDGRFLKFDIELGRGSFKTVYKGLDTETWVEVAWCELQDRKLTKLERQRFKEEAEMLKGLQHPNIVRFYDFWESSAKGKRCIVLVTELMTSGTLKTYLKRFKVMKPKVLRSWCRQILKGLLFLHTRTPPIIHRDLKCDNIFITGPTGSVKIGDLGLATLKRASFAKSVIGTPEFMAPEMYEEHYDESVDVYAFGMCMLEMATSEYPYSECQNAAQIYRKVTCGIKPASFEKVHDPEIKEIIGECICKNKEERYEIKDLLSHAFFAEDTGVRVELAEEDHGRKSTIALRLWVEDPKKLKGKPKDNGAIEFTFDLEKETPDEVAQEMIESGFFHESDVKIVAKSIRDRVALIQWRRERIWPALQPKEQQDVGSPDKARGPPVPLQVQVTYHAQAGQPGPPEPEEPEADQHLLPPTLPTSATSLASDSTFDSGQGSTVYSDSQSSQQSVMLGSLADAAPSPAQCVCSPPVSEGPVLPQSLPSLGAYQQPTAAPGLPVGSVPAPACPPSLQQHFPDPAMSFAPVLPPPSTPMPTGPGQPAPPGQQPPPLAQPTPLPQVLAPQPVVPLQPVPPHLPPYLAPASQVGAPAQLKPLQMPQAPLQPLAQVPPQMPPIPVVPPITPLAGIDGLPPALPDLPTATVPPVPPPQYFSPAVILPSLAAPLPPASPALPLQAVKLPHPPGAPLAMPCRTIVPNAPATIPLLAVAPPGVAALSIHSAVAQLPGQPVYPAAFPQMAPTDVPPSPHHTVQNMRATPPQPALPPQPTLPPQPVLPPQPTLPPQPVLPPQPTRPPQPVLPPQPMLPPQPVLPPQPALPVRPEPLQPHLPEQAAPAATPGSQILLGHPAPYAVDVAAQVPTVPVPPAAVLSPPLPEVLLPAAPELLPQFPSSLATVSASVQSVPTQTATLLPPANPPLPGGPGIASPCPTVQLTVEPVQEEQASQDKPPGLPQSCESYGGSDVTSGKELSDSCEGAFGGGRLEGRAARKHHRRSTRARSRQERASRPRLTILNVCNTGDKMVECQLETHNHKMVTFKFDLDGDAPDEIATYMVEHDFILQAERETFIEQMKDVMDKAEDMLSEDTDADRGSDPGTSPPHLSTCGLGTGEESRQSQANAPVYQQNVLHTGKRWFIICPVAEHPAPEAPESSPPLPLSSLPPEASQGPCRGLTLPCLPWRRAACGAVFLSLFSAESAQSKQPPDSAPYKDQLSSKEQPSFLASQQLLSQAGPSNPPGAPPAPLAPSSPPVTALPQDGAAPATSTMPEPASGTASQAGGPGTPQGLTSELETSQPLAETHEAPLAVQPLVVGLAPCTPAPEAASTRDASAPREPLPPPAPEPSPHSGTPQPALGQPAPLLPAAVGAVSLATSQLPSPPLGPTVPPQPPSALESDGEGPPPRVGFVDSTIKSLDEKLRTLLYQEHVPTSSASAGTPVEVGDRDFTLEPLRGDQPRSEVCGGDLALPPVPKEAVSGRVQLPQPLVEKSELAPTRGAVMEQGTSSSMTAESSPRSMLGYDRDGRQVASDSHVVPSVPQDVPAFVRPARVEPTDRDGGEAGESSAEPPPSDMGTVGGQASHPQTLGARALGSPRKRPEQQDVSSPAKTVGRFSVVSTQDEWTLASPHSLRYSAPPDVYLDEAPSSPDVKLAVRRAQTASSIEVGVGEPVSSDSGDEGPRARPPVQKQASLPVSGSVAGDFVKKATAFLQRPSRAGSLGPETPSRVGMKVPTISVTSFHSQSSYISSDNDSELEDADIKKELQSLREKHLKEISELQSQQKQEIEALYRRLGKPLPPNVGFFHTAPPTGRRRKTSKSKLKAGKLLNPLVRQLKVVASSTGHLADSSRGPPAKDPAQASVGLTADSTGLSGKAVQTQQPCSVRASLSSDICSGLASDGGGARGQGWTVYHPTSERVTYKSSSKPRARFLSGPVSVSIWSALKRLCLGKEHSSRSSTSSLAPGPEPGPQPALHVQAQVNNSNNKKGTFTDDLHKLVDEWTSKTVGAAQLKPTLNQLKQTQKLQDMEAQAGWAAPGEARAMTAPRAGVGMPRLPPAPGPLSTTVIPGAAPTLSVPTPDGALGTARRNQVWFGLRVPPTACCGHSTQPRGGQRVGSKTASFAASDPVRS

FAKLAARLYRKALARQLGVAA [MMI-0300]
BRK(h) % activity (BRK(h)): 35% | DCAMKL2(h) % activity (DCAMKL2(h)): 81% | IKKβ(h) % activity (IKKβ(h)): 84% | PKCζ(h) % activity (PKCζ(h)): 81% | RIPK2(h) % activity (RIPK2(h)): 97% | ROCK-II(h) % activity (ROCK-II(h)): 74% | Ret(V804M)(h) % activity (Ret(V804M)(h)): 95% | WNK2(h) % activity (WNK2(h)): 64% | ZIPK(h) % activity (ZIPK(h)): 28% | cKit(D816H)(h) % activity (cKit(D816H)(h)): 126%

KAFAKLAARLYRKALARQLGVAA [MMI-0400]
BRK(h) % activity (BRK(h)): 18% | DCAMKL2(h) % activity (DCAMKL2(h)): 70% | IKKβ(h) % activity (IKKβ(h)): 84% | PKCζ(h) % activity (PKCζ(h)): 75% | RIPK2(h) % activity (RIPK2(h)): 98% | ROCK-II(h) % activity (ROCK-II(h)): 77% | Ret(V804M)(h) % activity (Ret(V804M)(h)): 87% | WNK2(h) % activity (WNK2(h)): 54% | ZIPK(h) % activity (ZIPK(h)): 13% | cKit(D816H)(h) % activity (cKit(D816H)(h)): 143%

YARAAARQARAKALNRQLGVA (Mammalian) [MMI-0200]
BRK(h) % activity (BRK(h)): 127% | DCAMKL2(h) % activity (DCAMKL2(h)): 131% | PKCζ(h) % activity (PKCζ(h)): 98% | RIPK2(h) % activity (RIPK2(h)): 98% | ROCK-II(h) % activity (ROCK-II(h)): 85% | WNK2(h) % activity (WNK2(h)): 94% | ZIPK(h) % activity (ZIPK(h)): 67%

HRRIKAWLKKIKALARQLGVAA (Mammalian) [MMI-0500]
BRK(h) % activity (BRK(h)): 41% | DCAMKL2(h) % activity (DCAMKL2(h)): 56% | IKKβ(h) % activity (IKKβ(h)): 71% | PKCζ(h) % activity (PKCζ(h)): 7% | RIPK2(h) % activity (RIPK2(h)): 30% | ROCK-II(h) % activity (ROCK-II(h)): 2% | Ret(V804M)(h) % activity (Ret(V804M)(h)): 36% | WNK2(h) % activity (WNK2(h)): 8% | ZIPK(h) % activity (ZIPK(h)): 1% | cKit(D816H)(h) % activity (cKit(D816H)(h)): 194%
